Test results reported in paper PMC6078178 (Nature, 2017).

Target: T1, Tfa1 (TFIIE subunit) (S. cerevisiae, UniProt P36100 1-482)
T1 sequence (looked up): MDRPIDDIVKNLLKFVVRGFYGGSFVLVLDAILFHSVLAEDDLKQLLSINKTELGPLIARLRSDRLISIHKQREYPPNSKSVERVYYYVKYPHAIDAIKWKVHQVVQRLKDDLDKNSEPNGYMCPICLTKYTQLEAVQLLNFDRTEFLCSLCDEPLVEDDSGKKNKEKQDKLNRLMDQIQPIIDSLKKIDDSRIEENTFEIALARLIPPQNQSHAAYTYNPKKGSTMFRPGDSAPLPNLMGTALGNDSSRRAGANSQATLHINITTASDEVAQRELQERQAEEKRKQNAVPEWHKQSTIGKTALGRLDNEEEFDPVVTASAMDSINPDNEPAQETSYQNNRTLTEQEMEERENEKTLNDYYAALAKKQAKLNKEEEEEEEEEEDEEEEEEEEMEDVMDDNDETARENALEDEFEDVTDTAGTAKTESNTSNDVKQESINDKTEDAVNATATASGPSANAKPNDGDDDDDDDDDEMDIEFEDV
Assay: cross-linking

binding result: binds
B1: Ssl1 (natural protein, S. cerevisiae, UniProt Q04673 1-461, looked up)
chain: MAPVVISESEEDEDRVAITRRTKRQVHFDGEGDDRVDQQQQQHSSSHRDRDKHVQRKKKKRLSNRNLQGSNGGYAWEDEIKRSWDLVKVDDEGDMASLVASIVEARKKRTAKKNITPYQRGIIRSLILTLDCSEAMLEKDLRPNRHAMIIQYAIDFVHEFFDQNPISQMGIIIMRNGLAQLVSQVSGNPQDHIDALKSIRKQEPKGNPSLQNALEMARGLLLPVPAHCTREVLIVFGSLSTTDPGDIHQTIDSLVSEKIRVKVLGLSAQVAICKELCKATNYGDESFYKILLDETHLKELFNEAVTPLPVNKINKGFTLVKMGFPTRIFEDTPTFCSCHSKLVYGGYFCPNCHSKVCSLPTVCPCCDLMLILSTHLARSYHHLMPLKTFAEVPTTEKFRSEDCFSCQSRFPILKNHKNGKLLTSSRYRCEDCKQEFCVDCDVFIHEILHNCPGCESKPVIT
